# Test results taken from PMC8494748.
# T1: MS2 bacteriophage coat protein (bacteriophage MS2), P03612
# T1 chain: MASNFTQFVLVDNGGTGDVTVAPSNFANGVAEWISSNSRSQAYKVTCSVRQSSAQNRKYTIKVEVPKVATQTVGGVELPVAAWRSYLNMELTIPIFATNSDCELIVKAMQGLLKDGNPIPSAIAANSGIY
# Target: T1, MS2 bacteriophage coat protein …
# Test: SDS-PAGE with Western blot; 12.5% acrylamide gel, polyclonal anti-MS2 coat protein antibody; BL21(DE3) bacterial lysate; bands of 14 and 28 kDa
# Settings: remark: other sources report otherwise
binder,measurement,value
"MS2 bacteriophage coat protein, P03612 1-130 (natural protein) MASNFTQFVLVDNGGTGDVTVAPSNFANGVAEWISSNSRSQAYKVTCSVRQSSAQNRKYTIKVEVPKVATQTVGGVELPVAAWRSYLNMELTIPIFATNSDCELIVKAMQGLLKDGNPIPSAIAANSGIY",stoichiometry N,2
